# Assay results from PMC9995270 (Nature, 2023).
# B1: Flag-tagged PaLpxC (enzyme)
# chain: MIKQRTLKNIIRATGVGLHSGEKVYLTLKPAPVDTGIVFCRTDLDPVVEIPARAENVGETTMSTTLVKGDVKVDTVEHLLSAMAGLGIDNAYVELSASEVPIMDGSAGPFVFLIQSAGLQEQEAAKKFIRIKREVSVEEGDKRAVFVPFDGFKVSFEIDFDHPVFRGRTQQASVDFSSTSFVKEVSRARTFGFMRDIEYLRSQNLALGGSVENAIVVDENRVLNEDGLRYEDEFVKHKILDAIGDLYLLGNSLIGEFRGFKSGHALNNQLLRTLIADKDAWEVVTFEDARTAPISYMRPAAAV
# notes: LpxC of Pseudomonas aeruginosa PAO1; UniProt P47205 is printed for the covariation analysis; also called F–PaLpxC; F–LpxC; source: purified (details in the Supplementary Information)
# Legend:
# [1] = molecular target: T1, H–PaMurA(E406K) (P. aeruginosa, UniProt Q9HVW7 1-421, E406K); assay: […] (1:1), 25 mM Tris pH 8.0, 150 mM NaCl, 10% glycerol, 1 mM DTT, […]; conditions: both partners purified
# T1 construct: source: purified (details in the Supplementary Information)
# [2] = molecular target: T2, His-tagged PaMurA (P. aeruginosa, UniProt Q9HVW7 1-421); assay: as above; conditions: both partners purified
# T2 construct: MurA of Pseudomonas aeruginosa PAO1; UniProt Q9HVW7 is printed for the covariation analysis; also called H–PaMurA; H–PaMurA(WT); source: purified (details in the Supplementary Information)
binder,measurement,setting,value
B1,binding result,[1],binds
same,binding result,[2],binds
